Target: T1, NPY Y1 receptor (human, UniProt P25929 1-384)
T1 construct: whole, on cells; SK-N-MC cells are said to express the NPY Y1 receptor exclusively; also called SK-N-MC cells
T1 sequence (looked up): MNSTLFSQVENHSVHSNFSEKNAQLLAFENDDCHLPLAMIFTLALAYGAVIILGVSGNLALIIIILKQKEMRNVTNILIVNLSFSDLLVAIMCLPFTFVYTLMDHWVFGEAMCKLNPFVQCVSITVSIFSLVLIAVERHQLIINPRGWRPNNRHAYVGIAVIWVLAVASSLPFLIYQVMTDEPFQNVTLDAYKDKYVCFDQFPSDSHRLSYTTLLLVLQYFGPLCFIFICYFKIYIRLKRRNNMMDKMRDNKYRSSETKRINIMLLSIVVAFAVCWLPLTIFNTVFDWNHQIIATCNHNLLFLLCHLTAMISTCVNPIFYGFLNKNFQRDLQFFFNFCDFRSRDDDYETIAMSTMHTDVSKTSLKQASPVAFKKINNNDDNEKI
Test: 125I-NPY displacement on SK-N-MC cells
Protocol: Various peptide dilutions were incubated with SK-N-MC cells that exclusively express Y1 receptors. Cells were then washed three times with buffer and lysed in 1% Nonidet P40 (Fluka, Neu-Ulm, Germany), 8M urea, 3M acetic acid. […] At the end of the incubation period, cells were washed and lysed. Bound radioactivity was determined by gamma counting. […] Each point represents the mean ± of at least 4 experiments.

binding result: binds
B1: Neuropeptide Y (NPY) (peptide)
peptide: not shown
modifications: C-terminal tyrosine amidated
notes: also called native NPY; Human NPY 1-36

Reference: US20040009905A1 (B M R A CORPORATION B V, published 2004)
